The assay deals with T1, recombinant DbpA from B. burgdorferi strain 297 (DbpA297) (Borrelia burgdorferi strain 297, UniProt O50917).
T1 construct: also called recombinant DbpA297
Description: multiplex microsphere immunoassay (MIA, Luminex); recombinant antigens coupled to MagPlex-C microspheres; diluted MAb incubated 1 h at RT; PE-labelled secondary antibody; MFI read on a FlexMap 3D. The conditions noted are these: both partners purified.

T1 sequence (O50917 30-168): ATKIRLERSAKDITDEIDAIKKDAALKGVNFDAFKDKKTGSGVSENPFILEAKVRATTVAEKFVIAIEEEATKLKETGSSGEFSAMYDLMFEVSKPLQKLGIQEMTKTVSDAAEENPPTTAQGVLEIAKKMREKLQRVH

B1: F945 IgG (recombinant human monoclonal antibody, IgG1/kappa) (antibody, V domains shown)
VH: QVQLVESGGGVVQPGRSLRLSCAASGFSFNTYAFHWVRQGPGKGLEWVAGISFDGSKRYYADSVKGRFTVSRDNSKNTLYLQMNGLIPEDTAVYYCARDRRIVVVSAPGYWGQGTLVTVSS
VL: DIQMTQSPSSLSASVGDRVTITCQASHDISNYLNWYQQKPGKAPKLLIFDASYLETGVPSRFSGSGSGTDFTFTINSLQSEDIATYYCQQYDTLLSFGGGTRVEIK
Turning to B1, the binding result is recorded as “no binding”.

Source of the values: article PMC12277278 (Frontiers in Immunology, 2025).
